In patent US20170173114A1, “METHODS AND COMPOSITIONS FOR INDUCTION OF UCP1 EXPRESSION” (Joslin Diabetes Center, Inc., priority 2014, published 2017):
“Also recorded” adds a separate entry of the source.

B1: EGF: control treatment in glucose uptake assay (protein, UniProt P01133 23-1207, looked up)
Pro-epidermal growth factor: PQHWSCPEGTLAGNGNSTCVGPAPFLIFSHGNSIFRIDTEGTNYEQLVVDAGVSVIMDFHYNEKRIYWVDLERQLLQRVFLNGSRQERVCNIEKNVSGMAINWINEEVIWSNQQEGIITVTDMKGNNSHILLSALKYPANVAVDPVERFIFWSSEVAGSLYRADLDGVGVKALLETSEKITAVSLDVLDKRLFWIQYNREGSNSLICSCDYDGGSVHISKHPTQHNLFAMSLFGDRIFYSTWKMKTIWIANKHTGKDMVRINLHSSFVPLGELKVVHPLAQPKAEDDTWEPEQKLCKLRKGNCSSTVCGQDLQSHLCMCAEGYALSRDRKYCEDVNECAFWNHGCTLGCKNTPGSYYCTCPVGFVLLPDGKRCHQLVSCPRNVSECSHDCVLTSEGPLCFCPEGSVLERDGKTCSGCSSPDNGGCSQLCVPLSPVSWECDCFPGYDLQLDEKSCAASGPQPFLLFANSQDIRHMHFDGTDYGTLLSQQMGMVYALDHDPVENKIYFAHTALKWIERANMDGSQRERLIEEGVDVPEGLAVDWIGRRFYWTDRGKSLIGRSDLNGKRSKIITKENISQPRGIAVHPMAKRLFWTDTGINPRIESSSLQGLGRLVIASSDLIWPSGITIDFLTDKLYWCDAKQSVIEMANLDGSKRRRLTQNDVGHPFAVAVFEDYVWFSDWAMPSVMRVNKRTGKDRVRLQGSMLKPSSLVVVHPLAKPGADPCLYQNGGCEHICKKRLGTAWCSCREGFMKASDGKTCLALDGHQLLAGGEVDLKNQVTPLDILSKTRVSEDNITESQHMLVAEIMVSDQDDCAPVGCSMYARCISEGEDATCQCLKGFAGDGKLCSDIDECEMGVPVCPPASSKCINTEGGYVCRCSEGYQGDGIHCLDIDECQLGEHSCGENASCTNTEGGYTCMCAGRLSEPGLICPDSTPPPHLREDDHHYSVRNSDSECPLSHDGYCLHDGVCMYIEALDKYACNCVVGYIGERCQYRDLKWWELRHAGHGQQQKVIVVAVCVVVLVMLLLLSLWGAHYYRTQKLLSKNPKNPYEESSRDVRSRRPADTEDGMSSCPQPWFVVIKEHQDLKNGGQPVAGEDGQAADGSMQPTSWRQEPQLCGMGTEQGCWIPVSSDKGSCPQVMERSFHMPSYGTQTLEGGVEKPHSLLSANPLWQQRALDPPHQMELTQ
modifications: Pro-epidermal growth factor
B2: FGF21: fibroblast growth factor 21, member of the endocrine FGF ligands (protein, listed as Homo sapiens)
chain: MDSDETGFEHSGLWVSVLAGLLLGACQAHPIPDSSPLLQFGGQVRQRYLYTDDAQQTEAHLEIREDGTVGGAADQSPESLLQLKALKPGVIQILGVKTSRFLCQRPDGALYGSLHFDPEACSFRELLLEDGYNVYQSEAHGLPLHLPGNKSPHRDPAPRGPARFLPLPGLPPALPEPPGILAPQPPDVGSSDPLSMVGPSQGRSPSYAS

Assays:
WT-1 brown preadipocytes = assay: 2-deoxy-[3H]glucose uptake in WT-1 brown preadipocytes; assay type: cell-based, murine; conditions: FGF6 overexpressing vs control and EGF
Protocol: (§1) The following glucose uptake assay was used to determine whether FGF6 could impact cellular glucose uptake. Specifically, glucose uptake was monitored in WT-1 brown preadipocytes and 3T3-F442A white preadipocytes in the presence or absence of FGF6. After serum starvation in DMEM/H medium containing 1% of BSA for 2-3 h, cells were washed with HEPES buffer and then incubated with or without 100 nM insulin for 30 min in DMEM/H medium containing 1% of BSA. Glucose transport was determined by the addition of 2-deoxy-[3H]glucose (0.1 mM, 0.5 μCi/mL; PerkinElmer Life and Analytical Science, Waltham, Mass.). After 5 minutes of incubation, the reaction was stopped by ice-cold PBS and cells were washed twice with ice-cold PBS. Cells were then lysed in 0.1% SDS, and glucose uptake was assessed in 4 mL of scintillant using Beckman LS6500 scintillation counter (Beckman Coulter, Indianapolis Ind.). Nonspecific 2-deoxy-[3H]glucose uptake was measured in the presence of cytochalasin B (20 μM) and was subtracted from the total uptake to get specific glucose uptake. Results were expressed as the mean±s.e.m. of the indicated number of experiments. The protein content was determined by the Bradford method.
The role of PGs in regulating mitochondrial function and cellular glucose uptake was also assessed. […]

[1] = tested on: 3T3-F442A white preadipocytes; assay: 2-deoxy-[3H]glucose uptake in 3T3-F442A white preadipocytes; assay type: cell-based; conditions: FGF6 overexpressing vs control and EGF
Protocol: as §1

UCP1 [2] = assay: UCP1 mRNA expression (Q-RT-PCR) in WT-1 brown preadipocytes; assay type: cell-based, murine
Protocol: Total RNA was isolated with QIAzol lysis reagent (Qiagen, Valencia, Calif.) and purified by RNeasy Mini columns (Qiagen) following the manufacture's instructions. cDNA was prepared from total RNA using the Advantage RT-PCR kit (BD Biosciences, Palo Alto, Calif.) according to manufacturer's instructions. Diluted cDNA was used in a PCR reaction with SYBR Green Master Mix (Applied Biosystems, Foster City, Calif.) and primers specifically designed for detection of the gene of interest. PCR reactions were run in duplicate for each sample and quantitated in the ABI Sequence Detection System (Applied Biosystems). Data were expressed as arbitrary units after normalization to levels of expression of internal controls for each sample. Sequences of primers for specific genes are each obtained from the published literature or designed using publically available gene sequence databases. Unless otherwise indicated, gene expression data described in the examples below was obtained using QPCR.
The effect of FGF6 on differentiation of WT-1 murine brown preadipocytes was also examined. WT-1 cells can be induced to undergo brown adipocyte differentiation, characterized by lipid accumulation and expression of adipogenic and brown fat markers, as described above (Klein et al. (1999) J Biol Chem 274:34795; Tseng et al. (2005) Nat Cell Biol 7:601). WT-1 cells were treated with FGF6 in growth media (DMEM+10% FBS), a vehicle control (“control” or “C” referred to in FIGS. 3A-D), or induction media (“induction” or “I” referred to in FIGS. 3A-D) as described above for seven days. Following the treatment, cells were examined for the color of the culture media in combination with oil Red O staining, expression of adipogenic markers, expression of brown fat markers, immunofluorescent staining of cells with UCP1 and DPAI, and Western blot analysis to determine the presence of UCP1 and β-tubulin. The results are described in FIGS. 3A to 3D.
UCP1 mRNA expression in brown adipocyte cells was determined at FGF6 concentrations ranging from 0 to 300 ng/ml in the absence of induction cocktail.
In order to determine the length of time necessary to induce UCP1 expression upon exposure to of cells to FGF6, an experiment was performed whereby FGF6 was administered to brown preadipocytes at a concentration of 200 ng/ml and UCP1 expression was determined. FGF21 and a control were also used in the time course experiment. FGF21, a member of the endocrine FGF ligands that has been implicated in the browning of white fat (Fisher F. M. et al., Genes Dev. 26:271-281, 2012). […] FGF6 could acutely induce a significant increase of UCP1 expression as early as 4 hours after a 200 ng/ml dose, as described in FIG. 4B. At 24 hours, the fold-induction of UCP1 mRNA by FGF6 reached 700-fold higher than the untreated cells, as described in FIG. 4B.
To assess FGF6's role in the regulation of mitochondrial activity, FGF6 was stably expressed in WT-1 brown preadipocytes and 3T3-F442A white preadipocytes. Stable cells were generated by viral infection followed by drug selection.
FGF2, FGF6 and FGF9 were used at a dosage of 50 ng/mL, 100 ng/mL, 200 ng/mL or 300 ng/mL. FGF21 was used at the dosage of 50 ng/ml and 500 ng/mL. The concentration of BMP7 was 3.3 nM. RNA was isolated and UCP1 and PPARγ expression levels were evaluated by quantitative reverse transcription polymerase chain reaction (Q-RT-PCR) analysis after 24 hours (i.e., 1 day) (FIG. 14A), 2 days (FIG. 14B), 5 days (FIG. 14C) and 7 days (FIG. 14D) of treatment. All experiments were performed triplicate and the data are presented as mean+/−SEM.
FGF2, FGF6 and FGF9 were used at a dosage of 200 ng/mL. FGF21 was used at a dosage of 500 ng/mL. The concentration of BMP7 was 3.3 nM. mRNA was isolated and UCP1 and PPARγ expression levels were evaluated by quantitative reverse transcription polymerase chain reaction (Q-RT-PCR) analysis after 24 hours (i.e., 1 day), 2 days, 5 days and 7 days of treatment (FIG. 15). […]

UCP1 [3] = assay: UCP1 mRNA expression in SVF cells from interscapular brown adipose tissue (BAT-SVF); assay type: cell-based, C57BL/6 mice; conditions: growth media, 3 days; vs control
Protocol: (§2) Eight 6-week old C57BL/6 male mice were sacrificed. Interscapular BAT and axillary subcutaneous WAT were removed, minced and digested with 1 mg/ml collagenase for 45 minutes at 37° C. in DMEM/F12 media, containing 1% BSA and antibiotics. Digested tissues were filtered through sterile 150 μm nylon mesh and centrifuged at 250×g for 5 minutes. The floating fractions consisting of adipocytes were discarded and the pellets representing the SVF were then resuspended in erythrocyte lysis buffer (154 mM NH4Cl, 10 mM KHCO3, 0.1 mM EDTA) for 10 minutes to remove red blood cells. The cells were further centrifuged at 500×g for 5 minutes, plated at 8×10^5 cells/well of a 24-well plate and grown at 37° C. in DMEM/F12 supplemented with 10% FBS at 37° C.
(§3) To determine if FGF6 treatment of primary adipose progenitors could also increase UCP1 expression as observed in Example 1, stromo-vascular fraction (SVF) cells, which comprise adipocyte progenitors, were isolated from interscapular brown adipose tissue (BAT-SVF) and subcutaneous white adipose tissue (SQ-SVF). SVF cells were subsequently treated with FGF6 or FGF21 in growth media (DMEM+10% FBS) for 3 days, followed by determination of UCP1 expression. As described in FIGS. 9A and 9B, FGF21 treatment had little effect on UCP1 mRNA expression in either type of SVF cells, as compared to the control. […]

UCP1 [4] = assay: UCP1 mRNA expression in SVF cells from subcutaneous white adipose tissue (SQ-SVF); assay type: cell-based, C57BL/6 mice; conditions: growth media, 3 days; vs control
Protocol: as §2, §3

UCP1 [5] = assay: UCP1 mRNA expression in C2C12 myogenic progenitors; assay type: cell-based; conditions: three days
[6] = FGF21 50 and 500 ng/mL, BMP7 3.3 nM, with insulin and T3

Molecule | glucose uptake level in WT-1 (brown) preadipocytes (WT-1 brown preadipocytes) | glucose uptake level in F442A (white) preadipocytes [1] | UCP1 expression level, time course (UCP1 [2]; FGF2, FGF6, FGF9 200 ng/mL, FGF21 500 ng/mL, with insulin and T3, 1, 2, 5, 7 days) | UCP1 expression level at day 7 (UCP1 [2]; [6]) | UCP1 expression level at days 1, 2 and 5 (UCP1 [2]; [6]) | effect on UCP1 expression in brown preadipocytes cultured in growth media (UCP1 [2]; data not shown) | effect on UCP1 mRNA expression in BAT-SVF (UCP1 [3]) | effect on UCP1 mRNA expression in SQ-SVF (UCP1 [4]) | UCP1 mRNA expression in C2C12 myogenic progenitors (UCP1 [5])
B1 | no substantial effect | no substantial effect |  |  |  |  |  |  | 
B2 |  |  | did not express detectable amounts of UCP1 | only minimal amounts | did not express detectable amounts of UCP1 | marginal effect | little effect | little effect | neither FGF6 nor FGF21 induced UCP1 mRNA expression; also recorded: no induction of UCP1
